Data on five molecules can be found in paper PMC3717276, “Optimization and validation of mitochondria-based functional assay as a useful tool to identify BH3-like molecules selectively targeting anti-apoptotic Bcl-2 proteins” (BMC Biotechnology, 2013).

By Kd is commonly meant the concentration at which binding is half-saturated. A higher Kd goes with lower affinity. One may read the IC50 as the concentration that gives 50% inhibition. A lower IC50 goes with higher potency. What is called Ki is a measure of affinity in units of concentration, obtained from inhibition or displacement.

B1: 21-residue Bid BH3 peptide labeled at the N-terminus with 6-carboxyfluorescein succinimidyl ester (FAM-Bid) (peptide)
peptide: 6FAM-QEDIIRNIARHLAQVGDSMDR
notes: Bid BH3 peptide, residues 79-99 of Swiss-Prot P55957; also called Flu-Bid; source: synthetic peptide
B2: Human Mcl-1 protein, residues 171-327, N-terminal 8xHis tag (domain or fragment, UniProt Q07820-1 171-327, looked up)
chain: EDELYRQSLEIISRYLREQATGAKDTKPMGRSGATSRKALETLRRVGDGVQRNHETAFQGMLRKLDIKNEDDVKSLSRVMIHVFSDGVTNWGRIVTLISFGAFVAKHLKTINQESCIEPLAESITDVLVRTKRDWLVKQRGWDGFVEFFHVEDLEGG
notes: human Mcl-1 fragment (NM_021960), residues 171-327; Cloned into the pHis-TEV vector; source: E. coli BL21(DE3), purified (Ni-NTA, Source Q15)
B3: Bid BH3 peptide (residues 79-99) (peptide)
peptide: QEDIIRNIARHLAQVGDSMDR
notes: Bid BH3 peptide, residues 79-99 of Swiss-Prot P55957; also called unlabeled Bid BH3 peptide; source: provided by Dr. Peter P Roller (National Cancer Institute)
B4: Bad BH3 peptide (residues 103-128) (peptide)
peptide: NLWAAQRYGRELRRMSDEFVDSFKKG
notes: Bad BH3 peptide, residues 103-128 of GenBank CAG46757; source: provided by Dr. Peter P Roller (National Cancer Institute)
B5: Noxa BH3 peptide (residues 18-43) (peptide)
peptide: PAELEVECATQLRRFGDKLNFRQKLL
notes: Noxa BH3 peptide, residues 18-43 of Swiss-Prot Q13794; source: provided by Dr. Peter P Roller (National Cancer Institute)

Ends that are not written are not given here. * marks the point of attachment. 6FAM = O=C1OC2(c3ccc(O)cc3Oc3cc(O)ccc32)c2cc(C(=O)*)ccc21

Holding throughout (details): both partners purified
Assay [1] deals with B2. Kind of assay: fluorescence polarisation; saturation experiments with FAM-Bid and Mcl-1 or Bcl-2 protein; assay buffer 100 mM potassium phosphate, pH 7.5, 100 ug/ml bovine gamma globulin, 0.02% sodium azide. Background: In fluorescence polarisation assays a small probe gives low polarisation when free and higher when bound to something large.
Assay [2] deals with T1, Biotin-labeled Bim BH3 peptide (residues 81-106) (biotin label, position not stated).
T1 construct: Bim BH3 peptide, residues 81-106 of Swiss-Prot O43521; also called immobilized Bim BH3 peptide; Bim peptide
T1 sequence (peptide, as listed by the source): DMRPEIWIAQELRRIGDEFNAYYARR
As to the kind of experiment: SPR; biotin-labeled Bim BH3 peptide immobilised on a streptavidin SA chip; proteins injected at different concentrations in HBS-EP (10 mM HEPES pH 7.4, 150 mM NaCl, 3 mM EDTA, 0.005% P20). On the technique in general: In SPR one partner is held on a chip, and binding of the other changes the refractive index at the surface.

In assay [3] the target is B2. Kind of assay: SPR; competitive solution binding: protein (20 nM) pre-incubated with tested BH3 peptide for at least 30 min, injected over immobilised biotin-Bim BH3 peptide; response at 30 s of dissociation.
Assay [4] has as its target B2. As to the kind of experiment: fluorescence polarisation; competition: Mcl-1 (20 nM) or Bcl-2 (40 nM) pre-incubated with FAM-Bid (2 nM and 2.5 nM), tested BH3 peptide added, 2-3 h; 100 mM potassium phosphate, pH 7.5, 100 ug/ml bovine gamma globulin, 0.02% sodium azide; Ki calculated from IC50.
Assay [5] has as its target T2, Human Bcl-xL protein with internal deletion of 45-85 and C-terminal truncation of 212-233, N-terminal 8xHis … (human, UniProt Q07817-1 1-211, internal deletion of 45–85).
T2 construct: human Bcl-xL (NM_138578), internal deletion of residues 45-85 and C-terminal truncation of 212-233; Cloned into the pHis-TEV vector (a modified pET vector); source: E. coli BL21(DE3), purified (Ni-NTA, Superdex75)
Kind of assay: SPR; competitive solution binding: protein (20 nM) pre-incubated with tested BH3 peptide for at least 30 min, injected over immobilised biotin-Bim BH3 peptide; response at 30 s of dissociation.

Assay [6] deals with T2, Human Bcl-xL protein with internal …. As to the kind of experiment: fluorescence polarisation; competition: 30 nM Bcl-xL and 2.5 nM FAM-Bak, tested BH3 peptide added; 50 mM Tris-Bis, pH 7.4, 0.01% bovine gamma globulin; Ki calculated from IC50.

T2 sequence (Q07817 other isoform, or with tags, fused parts or gaps internal deletion of 45–85 | internal deletion of 45–85): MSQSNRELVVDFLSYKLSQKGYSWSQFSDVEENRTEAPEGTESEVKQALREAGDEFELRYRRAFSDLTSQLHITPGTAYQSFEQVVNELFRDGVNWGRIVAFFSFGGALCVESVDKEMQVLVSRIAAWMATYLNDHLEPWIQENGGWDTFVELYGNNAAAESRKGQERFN

B1 displayed a Kd in assay [1] of 2.8 nM.

B2 had a Kd in assay [2] of 0.2 nM.

B3 showed an IC50 in assay [3] of 60.1 nM. Moreover, the Ki in assay [4] is 6 nM.

For the molecule B4, the values for the half-maximal inhibitory concentration (IC50) in assay [5] and in assay [3] were 8.64 nM and above 30000 nM, respectively. Moreover, the Ki in assay [4] is above 20000 nM; in assay [6], 3.2 nM.

With B5, the results for the IC50 in assay [5] and in assay [3] were above 30000 nM and 51 nM, respectively. Besides, the inhibition constant Ki is 97 nM in assay [4] and above 10000 nM in assay [6].
